Reference: US20090155256A1

Target: His-tagged domains of human FcγRII (R&D Systems, Cat # 1330-CD) (human) (UniProt P12318)
Experiment: SPR (Biacore 3000), His-tagged receptor captured by penta-His antibody on CM5 chip, antibody injected; RU relative to control

Bapineuzumab (humanized 3D6, human IgG1, no Fc mutations) (antibody)
Relative Binding Capability (%): 100%
